# Source: paper PMC10694151, “Regulation of the cell division hydrolase RipC by the FtsEX system in Mycobacterium tuberculosis” (Nature Communications, 2023)
# T1: RipC (Rv2190c) of Mycobacterium tuberculosis, construct RipCΔ33 (Mycobacterium tuberculosis, UniProt P9WHU3 34-385)
# T1 construct: also called MtbRipC; RipC∆33
# T1 sequence: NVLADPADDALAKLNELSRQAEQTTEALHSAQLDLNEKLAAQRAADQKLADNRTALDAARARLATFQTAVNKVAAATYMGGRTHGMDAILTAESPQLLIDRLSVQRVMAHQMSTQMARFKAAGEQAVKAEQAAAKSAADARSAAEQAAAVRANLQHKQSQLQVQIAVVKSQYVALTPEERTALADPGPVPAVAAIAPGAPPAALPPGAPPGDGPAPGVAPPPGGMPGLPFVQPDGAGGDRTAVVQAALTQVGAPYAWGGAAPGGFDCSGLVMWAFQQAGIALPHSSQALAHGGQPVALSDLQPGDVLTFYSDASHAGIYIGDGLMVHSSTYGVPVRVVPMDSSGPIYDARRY
# Target: T1, RipC (Rv2190c) of Mycobacterium …
# Experiment: cryo-EM structure; FtsEX or FtsEX-RipC in peptidiscs, 3 mg/ml, ATP-free
# Details: both partners purified
binder,measurement,value
"FtsX (Rv3101c) of Mycobacterium tuberculosis (natural protein, also called MtbFtsX) MRFGFLLNEVLTGFRRNVTMTIAMILTTAISVGLFGGGMLVVRLADSSRAIYLDRVESQVFLTEDVSANDSSCDTTACKALREKIETRSDVKAVRFLNRQQAYDDAIRKFPQFKDVAGKDSFPASFIVKLENPEQHKDFDTAMKGQPGVLDVLNQKELIDRLFAVLDGLSNAAFAVALVQAIGAILLIANMVQVAAYTRRTEIGIMRLVGASRWYTQLPFLVEAMLAATMGVGIAVAGLMVVRALFLENALNQFYQANLIAKVDYADILFITPWLLLLGVAMSGLTAYLTLRLYVRR",binding result,binds
